The text below walks through data of patent US20240209334A1, “SMALL-MOLECULE-ACTIVATED GLYCAN MODIFYING ENZYMES AND USES THEREOF” (President and Fellows of Harvard College, priority 2022, published 2024).

One experiment concerns Nup62-NLS. Kind of experiment: Spatial deglycosylation of nuclear Nup62-NLS by OGA-intein(C181) variants in HEK293T cells. In kind it is cell-based. Particulars: nuclear Nup62-NLS co-expressed. On the procedure:
(§1) Next, it was assessed whether these OGA-intein(C181) variants enable selective spatial deglycosylation in live cells. As O-GlcNAc affects the subcellular localization of many proteins (37), Nup62 was used as a model cytoplasmic substrate, which was previously primarily localized in the cytoplasm when transiently overexpressed in HEK293T cells independent of the O-GlcNAcylation state (13) (FIGS. 11A, 11B). Nup62 was co-expressed with three OGA-intein(C181) variants (C181-WT, C181-NLS, and C181-NES) in HEK293T cells, and Nup62 was enriched for O-GlcNAc measurement. […] Next, Nup62 was localized to the nucleus by attachment to an NLS tag (Nup62-NLS), and a similar coexpression and 4-HT-triggered activation was performed with OGA-intein(C181) variants. […] The fluorescent intensity of OGA-intein variants also show a strong correlation to the localization of Nup62, indicating the desired subcellular distribution (FIGS. 11A-C).
(§2) Immunoprecipitation and Immunoblot assays. […]
(§3) For immunoblotting analysis, proteins were transferred to a nitrocellulose membrane using an iBlot system (Invitrogen). […] Immunoblot images were captured using Azure Imager C600 and analyzed with Fiji ImageJ for converting all IR fluorescence western blot images to grayscale images.

For experiment [1], the system named is global O-GlcNAc level in MCF-7 cells. Kind of experiment: Immunoblot of global O-GlcNAc level and splicing in MCF-7 stable cell lines. In kind it is cell-based, human. The following applies: MCF-7 cells stably expressing the variant. The source says: In addition to serving as an activator for intein splicing, 4-HT is also known as the active metabolite of tamoxifen, an FDA-approved drug for treating breast cancer patients. Breast cancer cells also have elevated OGT expression (39) and decreased levels of OGA (40, 41), resulting in elevated O-GlcNAcylation in the proteome. OGT is usually required for tumor growth and metastasis (39), and low OGA expression is correlated with poor survival in breast cancer patients (FIG. 13). The ER positive breast cancer-derived MCF-7 cell line is sensitive to tamoxifen and 4-HT, resulting in suppression of cell proliferation, yet drug resistance occurs after long-term treatment (42). Previous studies also show evidence that upregulation of O-GlcNAcylation protects MCF-7 cells from tamoxifen-induced cell death (43). To determine if reduction of O-GlcNAc sensitized MCF-7 cells to 4-HT treatment, it was assessed whether 4-HT induced inhibition of breast cancer cell proliferation and OGA-intein activation worked synergistically to accelerate cell death (FIG. 5A). […] Next, these two cell lines were treated with 4-HT at increasing concentrations, and cell viability was measured after 48 hours. […] Given that 4-HT promoted MCF-7 cell death through apoptosis (43), the apoptosis of these cells under 4-HT treatment was further analyzed through flow cytometry analyses following Annexin V and DAPI staining. […]
For orientation: A western blot detects proteins with antibodies after separation by electrophoresis.

The test system of another experiment is Nup62. Kind of experiment: Spatial deglycosylation of cytoplasmic Nup62 by OGA-intein(C181) variants in HEK293T cells. It is filed as cell-based. Particulars: cytoplasmic Nup62 co-expressed. On the procedure: as §1, §2, §3

B1: C181-NLS: OGA-intein(C181) appended to a nuclear-localization sequence (protein)
chain: MEQKLISEEDLAIAMVQKESQATLEERESELSSNPAASAGASLEPPAAPAPGEDNPAGAGGAAVAGAAGGARRFLCGVVEGFYGRPWVMEQRKELFRRLQKWELNTYLYAPKDDYKHRMFWREMYSVEEAEQLMTLISAAREYEIEFIYAISPGLDITFSNPKEVSTLKRKLDQVSQFGCRSFALLFDDIDHNMCLAEGTRIFDPVTGTTHRIEDVVDGRKPIHVVAAAKDGTLLARPVVSWFDQGTRDVIGLRIAGGAIVWATPDHKVLTEYGWRAAGELRKGDRVAGPGGSGNSLALSLTADQMVSALLDAEPPILYSEYDPTSPFSEASMMGLLTNLADRELVHMINWAKRVPGFVDLTLHDQAHLLERAWLEILMIGLVWRSMEHPGKLLFAPNLLLDRNQGKCVEGMVEIFDMLLATSSRFRMMNLQGEEFVCLKSIILLNSGVYTFLSSTLKSLEEKDHIHRALDKITDTLIHLMAKAGLTLQQQHQRLAQLLLILSHIRHMSNKGMEHLYSMKYKNVVPLYDLLLEMLDAHRLHAGGSGASRVQAFADALDDKFLHDMLAEGLRYSVIREVLPTRRARTFDLEVEELHTLVAEGVVVHNCAADKEVFSSFAHAQVSITNEIYQYLGEPETFLFCPTEYCGTFCYPNVSQSPYLRTVGEKLLPGIEVLWTGPKVVSKEIPVESIEEVSKIIKRAPVIWDNIHANDYDQKRLFLGPYKGRSTELIPRLKGVLTNPNCEFEANYVAIHTLATWYKSNMNGVRKDVVMTDSEDSTVSIQIKLENEGSDEDIETDVLYSPQMALKLALTEWLQEFGVPHQYSSRGSGSGSGSGSGSGSGEKPLYTAEPVTLEDLQLLADLFYLPYEHGPKGAQMLREFQWLRANSSVVSVNCKGKDSEKIEEWRSRAAKFEEMCGLVMGMFTRLSNCANRTILYDMYSYVWDIKSIMSMVKSFVQWLGCRSHSSAQFLIGDQEPWAFRGGLAGEFQRLLPIDGANDLFFQPPKRPAATKKAGQAKKKK
B1: the “4-HT-induced deglycosylation of Nup62-NLS” value in the experiment with Nup62-NLS is 4-HT-induced deglycosylation.

B2: C181_D174N: catalytically dead mutant (D174N) of OGA-intein(C181) (protein)
chain: MEQKLISEEDLAIAMVQKESQATLEERESELSSNPAASAGASLEPPAAPAPGEDNPAGAGGAAVAGAAGGARRFLCGVVEGFYGRPWVMEQRKELFRRLQKWELNTYLYAPKDDYKHRMFWREMYSVEEAEQLMTLISAAREYEIEFIYAISPGLDITFSNPKEVSTLKRKLDQVSQFGCRSFALLFNDIDHNMCLAEGTRIFDPVTGTTHRIEDVVDGRKPIHVVAAAKDGTLLARPVVSWFDQGTRDVIGLRIAGGAIVWATPDHKVLTEYGWRAAGELRKGDRVAGPGGSGNSLALSLTADQMVSALLDAEPPILYSEYDPTSPFSEASMMGLLTNLADRELVHMINWAKRVPGFVDLTLHDQAHLLERAWLEILMIGLVWRSMEHPGKLLFAPNLLLDRNQGKCVEGMVEIFDMLLATSSRFRMMNLQGEEFVCLKSIILLNSGVYTFLSSTLKSLEEKDHIHRALDKITDTLIHLMAKAGLTLQQQHQRLAQLLLILSHIRHMSNKGMEHLYSMKYKNVVPLYDLLLEMLDAHRLHAGGSGASRVQAFADALDDKFLHDMLAEGLRYSVIREVLPTRRARTFDLEVEELHTLVAEGVVVHNCAADKEVFSSFAHAQVSITNEIYQYLGEPETFLFCPTEYCGTFCYPNVSQSPYLRTVGEKLLPGIEVLWTGPKVVSKEIPVESIEEVSKIIKRAPVIWDNIHANDYDQKRLFLGPYKGRSTELIPRLKGVLTNPNCEFEANYVAIHTLATWYKSNMNGVRKDVVMTDSEDSTVSIQIKLENEGSDEDIETDVLYSPQMALKLALTEWLQEFGVPHQYSSRGSGSGSGSGSGSGSGEKPLYTAEPVTLEDLQLLADLFYLPYEHGPKGAQMLREFQWLRANSSVVSVNCKGKDSEKIEEWRSRAAKFEEMCGLVMGMFTRLSNCANRTILYDMYSYVWDIKSIMSMVKSFVQWLGCRSHSSAQFLIGDQEPWAFRGGLAGEFQRLLPIDGANDLFFQPP
For B2, the “global O-GlcNAc level after adding 4-HT” value in experiment [1] is “inactive form”.

B3: C181-NES: OGA-intein(C181) appended to a nuclear-export sequence (protein)
chain: MEQKLISEEDLAIAMVQKESQATLEERESELSSNPAASAGASLEPPAAPAPGEDNPAGAGGAAVAGAAGGARRFLCGVVEGFYGRPWVMEQRKELFRRLQKWELNTYLYAPKDDYKHRMFWREMYSVEEAEQLMTLISAAREYEIEFIYAISPGLDITFSNPKEVSTLKRKLDQVSQFGCRSFALLFDDIDHNMCLAEGTRIFDPVTGTTHRIEDVVDGRKPIHVVAAAKDGTLLARPVVSWFDQGTRDVIGLRIAGGAIVWATPDHKVLTEYGWRAAGELRKGDRVAGPGGSGNSLALSLTADQMVSALLDAEPPILYSEYDPTSPFSEASMMGLLTNLADRELVHMINWAKRVPGFVDLTLHDQAHLLERAWLEILMIGLVWRSMEHPGKLLFAPNLLLDRNQGKCVEGMVEIFDMLLATSSRFRMMNLQGEEFVCLKSIILLNSGVYTFLSSTLKSLEEKDHIHRALDKITDTLIHLMAKAGLTLQQQHQRLAQLLLILSHIRHMSNKGMEHLYSMKYKNVVPLYDLLLEMLDAHRLHAGGSGASRVQAFADALDDKFLHDMLAEGLRYSVIREVLPTRRARTFDLEVEELHTLVAEGVVVHNCAADKEVFSSFAHAQVSITNEIYQYLGEPETFLFCPTEYCGTFCYPNVSQSPYLRTVGEKLLPGIEVLWTGPKVVSKEIPVESIEEVSKIIKRAPVIWDNIHANDYDQKRLFLGPYKGRSTELIPRLKGVLTNPNCEFEANYVAIHTLATWYKSNMNGVRKDVVMTDSEDSTVSIQIKLENEGSDEDIETDVLYSPQMALKLALTEWLQEFGVPHQYSSRGSGSGSGSGSGSGSGEKPLYTAEPVTLEDLQLLADLFYLPYEHGPKGAQMLREFQWLRANSSVVSVNCKGKDSEKIEEWRSRAAKFEEMCGLVMGMFTRLSNCANRTILYDMYSYVWDIKSIMSMVKSFVQWLGCRSHSSAQFLIGDQEPWAFRGGLAGEFQRLLPIDGANDLFFQPPLALKLAGLDIN
Turning to B3, the “removal of O-GlcNAc from Nup62 after 4-HT-triggered activation” value in the experiment on Nup62 was “removed O-GlcNAc from Nup62”.
